Data published in patent US20260083749A1, “ANTI-CD123 IMMUNOCONJUGATES FOR THE TREATMENT OF ACUTE MYELOID LEUKEMIA” (ImmunoGen, Inc., priority 2024, published 2026).

What was measured:
AML patients = details: published for other AML therapies; cited from earlier work
[1] = tested on: normal marrow progenitors; details: background statement; cited from earlier work
AML xenografts = details: background statement; cited from earlier work
patients with R/R AML [2] = assay: Phase 1/2 trial of pivekimab sunirine monotherapy Q3W: safety (TEAEs, SAEs, DLTs); format: in vivo, human; details: N= 3/91; dose levels four- to ten-fold higher per cycle than the RP2D
patients with R/R AML [3] = assay: Phase 1/2 trial of pivekimab sunirine monotherapy Q3W: anti-leukemia responses; format: in vivo, human; details: for Median time to first CCR (CR/CRh/CRi): range
From the text: (§1) Patients with AML were enrolled into a phase 1/2 clinical trial of pivekimab sunirine. Key inclusion and exclusion criteria were as follows.
• Patients ≥18 years old • R/R AML • Confirmation of CD123 positivity on flow cytometry or immunohistochemistry (IHC). Patients who received prior CD123-targeting agents were allowed as long as the blasts still had detectable CD123 expression. • Eastern Cooperative Oncology Group (ECOG) performance status ≤1. […] Patients with a PCHM were eligible as long as no current therapy was still required for the second malignancy (e.g., MDS, CMML). Patients with a nonhematologic prior malignancy were in remission from the prior malignancy.
(§2) Patients with R/R AML (n=68) were treated with pivekimab sunirine once every 3 weeks (Q3W; on day 1 of a 3-week cycle).
(§3) The trial included a dose-escalation phase and a dose-expansion phase. All patients in both phases received intravenous doses of pivekimab sunirine on day 1 of a 21-day cycle as a <30-minute outpatient infusion. Lyophilized pivekimab sunirine was reconstituted using […] of water for injection. Planned treatment consisted of 2 cycles (6 weeks). Additional cycles, up to 10 total, were administered for patients deriving benefit from this regimen. CNS prophylactic intrathecal chemotherapy was administered. Patients received 8 mg dexamethasone on the day before any pivekimab sunirine dose. Patients also received 25-50 mg diphenhydramine, 325-650 mg acetaminophen or paracetamol, and 8 mg dexamethasone before each pivekimab sunirine infusion.
(§4) In the dose-escalation phase, patients received doses of pivekimab sunirine starting at 0.015 mg/kg with five escalations (n=38): 0.015 mg/kg (n=3), 0.045 mg/kg (n=9), 0.09 mg/kg (n=12), […] (n=7), 0.3 mg/kg (n=5), and 0.45 mg/kg (n=2).
Anti-leukemia responses were assessed per International Working Group (IWG) criteria 2003 (Cheson B D, et al. Revised recommendations of the International Working Group for Diagnosis, Standardization of Response Criteria, Treatment Outcomes, and Reporting Standards for Therapeutic Trials in Acute Myeloid Leukemia. J Clin Oncol 2003; 21(24): 4642-9) and European LeukemiaNet (ELN) response criteria 2017 (Dohner H, et al. Diagnosis and management of AML in adults: 2017 ELN recommendations from an international expert panel. Blood 2017; 129(4): 424-47) as composite complete remission (CCR) rate (defined as CR without minimal residual disease [CRMRD−]+CR+CRh+CR with incomplete recovery CRi]). Overall response rate (ORR) was defined as CRMRD−+CR+CRh+CRi+morphologic leukemia-free state (MLFS) +partial response (PR). Duration of overall response (DOR) was also evaluated.
Response assessments were performed in bone marrow aspirates (BMAs) for differential assessments taken on Cycle 1, Day 21±7 days. Subsequent BMAs were performed approximately every 1 to 2 cycles as clinically indicated, and at the 30-Day Follow-up visit. Data was also collected in the event BMAs were performed more frequently. No repeat bone marrow was necessary if lack of response or PD could be unequivocally diagnosed from peripheral blood tests or if the bone marrow test was considered noncontributory at any time point.

patients with R/R AML [4] = assay: Phase 1/2 trial of pivekimab sunirine monotherapy Q3W: safety (TEAEs, SAEs, DLTs); format: in vivo, human
Protocol: as §1, §2, §3
Following preparation, IMGN632 (or pivekimab sunirine (pvek)) was administered by IV syringe pump. Overall length of infusion was varied depending on dose and patient tolerability. Initially, the study drug was administered at a rate of 0.165 mg/min ([…]); and, after 30 minutes, if well tolerated, the rate was increased to 0.33 mg/min. Subsequent infusions were delivered at the highest tolerated rate. Before and following infusion, the line was flushed with 5% dextrose to ensure delivery of the full dose. Patients were carefully observed during each infusion and vital signs were monitored. Patients remained in the clinic under observation for 4 hours after the first infusion and for at least 1 hour after each subsequent infusion.
as §4
Based on nonclinical pharmacology, clinical safety, anti-leukemia activity, PK, and PD assessments during the dose-escalation phase, two cohorts were established for the dose expansion phase. • Cohort 1: Patients with relapsed AML received 0.045 mg/kg (escalation dose level 2) Q3W (n=20). • Cohort 2: Patients with relapsed or refractory (to non-intense therapies) AML received 0.09 mg/kg (escalation dose level 3) Q3W (n=10).
Safety was assessed by treatment-emergent adverse events (TEAEs), serious adverse events (SAEs), and dose-limiting toxicities (DLTs). The median duration of treatment in participants who received […] pivekimab sunirine Q3W (n=29) was 9 weeks (range, 3-110).

[5] = RP2D, prior intensive therapy, n= 5/22
[6] = RP2D, prior venetoclax exposure, n= 2/14

CCc1nc(C(N)=O)c(Nc2ccc(N3CCC(N4CCN(C)CC4)CC3)c(OC)c2)nc1NC1CCOCC1 [gilteritinib]
Incidence of febrile neutropenia, published (AML patients): 46%

N#Cc1ccnc(N2C(=O)CC[C@H]2C(=O)N(c2cncc(F)c2)[C@H](C(=O)NC2CC(F)(F)C2)c2ccccc2Cl)c1 [ivosidenib]
Incidence of febrile neutropenia, published (AML patients): 29%

B1: pivekimab sunirine (conjugate, chains of the INN, looked up)
VH: QVQLVQSGAEVKKPGASVKVSCKASGYIFTSSIMHWVRQAPGQGLEWIGYIKPYNDGTKYNEKFKGRATLTSDRSTSTAYMELSSLRSEDTAVYYCAREGGNDYYDTMDYWGQGTLVTVSS
VL: EIQMTQSPSSLSASVGDRVTITCRASQDINSYLSWFQQKPGKAPKTLIYRVNRLVDGVPSRFSGSGSGNDYTLTISSLQPEDFATYYCLQYDAFPYTFGQGTKVEIK
modifications: sunirine payload (DNA-alkylating drug conjugate)
Toxicity in normal marrow progenitors versus other DNA-targeting payloads [1]: less toxicity in normal marrow progenitors
Antitumor activity in AML xenografts (AML xenografts): potent antitumor activity
Reversible VOD (patients with R/R AML [2]): 3%
Best overall response CR, % (patients with R/R AML [3]; All Participants (n = 68)): (3) %
Best overall response CR, No. (patients with R/R AML [3]; All Participants (n = 68)): 2 No.
Best overall response CRh, % (patients with R/R AML [3]; All Participants (n = 68)): (3) %
Best overall response CRh, No. (patients with R/R AML [3]; All Participants (n = 68)): 2 No.
Best overall response CRi, % (patients with R/R AML [3]; All Participants (n = 68)): (6) %
Best overall response CRi, No. (patients with R/R AML [3]; All Participants (n = 68)): 4 No.
Best overall response MLFS, % (patients with R/R AML [3]; All Participants (n = 68)): (3) %
Best overall response MLFS, No. (patients with R/R AML [3]; All Participants (n = 68)): 2 No.
Best overall response PD, % (patients with R/R AML [3]; All Participants (n = 68)): (24) %
Best overall response PD, No. (patients with R/R AML [3]; All Participants (n = 68)): 16 No.
Best overall response PR, % (patients with R/R AML [3]; All Participants (n = 68)): (2) %
Best overall response PR, No. (patients with R/R AML [3]; All Participants (n = 68)): 1 No.
Best overall response SD, % (patients with R/R AML [3]; All Participants (n = 68)): (52) %
Best overall response SD, No. (patients with R/R AML [3]; All Participants (n = 68)): 35 No.
CCR rate (CR + CRh + CRi), % (patients with R/R AML [3]; All Participants (n = 68)): (12) %
CCR rate (CR + CRh + CRi), No. (patients with R/R AML [3]; All Participants (n = 68)): 8 No.
Median duration of CR (patients with R/R AML [3]; All Participants (n = 68)): 2.2 mo
Median duration of remission (patients with R/R AML [3]; All Participants (n = 68)): 2.0 mo
ORR (CR + CRh + CRi + MLFS + PR), No. (patients with R/R AML [3]; All Participants (n = 68)): 11 No.
Anti-leukemia activity versus CD123 expression (patients with R/R AML [3]; FIG. 3): anti-leukemia activity regardless of CD123 expression
ORR (patients with R/R AML [3]; RP2D, de novo (nonsecondary) AML, n= 6/18): 33%
CCR (patients with R/R AML [3]; RP2D, prior HSCT, n= 3/9): 33%
ORR (patients with R/R AML [3]; RP2D, prior HSCT, n= 3/9): 33%
CCR (patients with R/R AML [3]; [5]): 23%
ORR (patients with R/R AML [3]; [5]): 23%
CCR (patients with R/R AML [3]; [6]): 14%
ORR (patients with R/R AML [3]; [6]): 14%
CCR (patients with R/R AML [3]; RP2D, two prior lines, n= 3/15): 20%
ORR (patients with R/R AML [3]; RP2D, two prior lines, n= 4/15): 27%
CCR (patients with R/R AML [3]; RP2D, venetoclax-naive, n= 3/15): 20%
ORR (patients with R/R AML [3]; RP2D, venetoclax-naive, n= 4/15): 27%
Median duration of CCR (CR/CRh/CRi) (patients with R/R AML [3]; RP2D, 95% CI 1.64-not estimable): 2.27 months
Median time to first CCR (CR/CRh/CRi) (patients with R/R AML [3]; RP2D, 0.79-3.61): 2.04 months
Participants with decrease in bone marrow blasts (patients with R/R AML [3]; all dose levels and cohorts, n= 31/68): 46%
Median duration of CCR (CR/CRh/CRi) (patients with R/R AML [3]; all schedule A doses, 95% CI 1.02-3.55): 2.22 months
Median time to first CCR (CR/CRh/CRi) (patients with R/R AML [3]; all schedule A doses, 0.46-4.37): 1.76 months
Participants with >100% increase in BM blasts (patients with R/R AML [3]; cohort 1 and cohort 2 R/R AML, FIG. 1): 11 participants
Individual responses in participants with FLT3-ITD mutations (patients with R/R AML [3]; in vivo): ¼
Individual responses in participants with IDH1 mutations (patients with R/R AML [3]; in vivo): ⅓
Prolonged neutropenia (grade 3) considered related to pivekimab sunirine (DLT) (patients with R/R AML [4]; 0.3 mg/kg after 2 cycles): one
30-day mortality rate (patients with R/R AML [4]; 2 deaths due to disease progression): 7%
Maximum tolerated dose (MTD) (patients with R/R AML [4]; 30-fold dose escalation, 0.015-[…] Q3W): no maximum tolerated dose (MTD) defined
Incidence of febrile neutropenia (patients with R/R AML [4]; all schedule A participants): 35%
Reversible VOD possibly related to pivekimab sunirine (DLT) (patients with R/R AML [4]; grade 3, 0.18 mg/kg after 2 cycles, grade 4, […] during cycle 1): two
Grade 4 IRRs (patients with R/R AML [4]; in vivo): no grade 4 IRRs occurred
IRRs (patients with R/R AML [4]; mostly tachycardia and/or chills with the first dose, primarily grade 1-2): 31%
Participants who experienced DLTs (patients with R/R AML [4]; of the 68 participants, all doses): Three
TEAEs leading to treatment discontinuation (patients with R/R AML [4]; seven of 68 participants): 10%
